Results on three molecules are retold here after article doi:10.1101/2024.01.05.574393.

The chains are these.
B1: FLNCd24 (domain 24 of filamin C, residues 2630-2724), wild type (domain or fragment)
chain: GSKFSSDASKVVTRGPGLSQAFVGQKNSFTVDCSKAGTNMMMVGVHGPKTPCEEVYVKHMGNRVYNVTYTVKEKGDYILIVKWGDESVPGSPFKVKV
B2: FLNCd24 Y2683E (phospho-mimic, residues 2630-2724) (domain or fragment)
chain: GSKFSSDASKVVTRGPGLSQAFVGQKNSFTVDCSKAGTNMMMVGVHGPKTPCEEVEVKHMGNRVYNVTYTVKEKGDYILIVKWGDESVPGSPFKVKV
B3: FLNCd24 T2677D (phospho-mimic, residues 2630-2724) (domain or fragment)
chain: GSKFSSDASKVVTRGPGLSQAFVGQKNSFTVDCSKAGTNMMMVGVHGPKDPCEEVYVKHMGNRVYNVTYTVKEKGDYILIVKWGDESVPGSPFKVKV

The target in this test is HSPB7ACD (α-crystallin domain, residues 78-162 of isoform 2) (human). Kind of test: native MS.
B1: the Kd (in general, a measure of binding affinity in units of concentration) amounted to 3.9 nM.

B2: the Kd worked out at 2.2 nM.

For B3, the Kd was determined as 14.1 nM. Against the preceding molecule, the Kd is about 6.4-fold higher.
